# Laboratory results taken from paper doi:10.1101/2021.02.02.429416.
# What was measured:
# Aflibercept [1] = experiment: ELISA
# Aflibercept [2] = experiment: BLI
EC50 (Aflibercept [1]),Kd (Aflibercept [2]),Substance
1.63 nM,,Human VEGF-A121 (ligand)
1.69 nM,0.00269 nM,Human VEGF-A165 (ligand)
